Results from US20250075006A1 (SHANDONG SIMCERE BIOPHARMACEUTICAL, published 2025).
Where two headings read alike, the source gives them in different places. Each block holds one binder with its values, some of them ahead of it.

Columns and labels:
[1] = target: T1, Human GUCY2C ECD (his-tagged human GUCY2C protein extracellular domain fusion protein) (human, UniProt P25092 24-430); test: SPR Biacore, antibody on Protein A, antigen injected
T1 construct: also called human GUCY2C-his; human GUCY2C-His
Protocol: The strength of antibody-antigen binding was assayed with a BIAcore 8K instrument using a Protein A capture method. First, Protein A was immobilized onto a CM4 chip (purchased from GE, BR-1005-34) using an amino coupling method. According to the instruction of the Amine Coupling Kit (purchased from GE, BR100633), NHS and EDC were mixed with HBS-EP+pH 7.4 as a mobile phase to activate the chip for about 600 s; the Protein A was diluted to 50 μg/mL with 10 mM sodium acetate (pH 4.5) and injected for 600 s, and finally, the remaining activated sites were blocked with ethanolamine. Then, the affinity of the antibody for the antigen was assayed using a multi-cycle kinetic method; in each cycle, first, the antibody to be tested was captured using the Protein A chip, and then a single concentration of antigen protein was injected. The association and dissociation processes of the antibody with the antigen protein were recorded, and finally, the chip was regenerated using Glycine pH 1.5, wherein the mobile phase was HBS-EP+(10 mM HEPES, 150 mM NaCl, 3 mM EDTA, 0.05% surfactant P20), the flow rate was 30 μL/min, the regeneration time was 30 s, and the assay temperature was 25° C. Finally, according to a 1:1 binding model, the data were analyzed, and the antibody-antigen binding kinetics parameters, including the association rate constant Ka, the dissociation rate constant Kd, the equilibrium dissociation constant KD, and the maximum binding signal Rmax, were fitted.
(§1) After the finally obtained various humanized antibodies were expressed and purified, the affinities of the humanized antibodies for the human and monkey GUCY2C proteins were separately assayed according to the method in Example 4.6.

[2] = target: T1, Human GUCY2C ECD (his-tagged human …); test: BLI Gator, antibody on anti-human Fc probe, antigen in solution
Protocol: (§2) Next, we measured the affinity of the recombinant antibody by another method, and the specific procedures were as follows: the binding strength of the antibody to the antigen was assayed by acquiring and analyzing the signal change of the reflection interference spectrum on the surface of the optical probe by using thin film interference technology. First, the probe was equilibrated for 300 s with HBS-T+pH 7.4 (0.02% tween) as the mobile phase. 2 μg/mL of the antibody to be tested was captured by an anti-human FC probe (purchased from ProbeLife, PL168-160003) for 240 s, and then antigen proteins with the concentration of 200 nM and diluted two-fold were injected. Kon for 300 s and Koff for 600 s. The association and dissociation processes of the antibody with the antigen protein were recorded, and finally, the chip was regenerated using Glycine pH 2.0 (purchased from GE), wherein the mobile phase was HBS-T+pH 7.4 (0.02% tween), the regeneration time was 5 s, and the assay temperature was 30° C. Finally, according to a 1:1 binding model, the data were analyzed, and the antibody-antigen binding kinetics parameters, including the association rate constant Ka, the dissociation rate constant Kd, the equilibrium dissociation constant KD, and the maximum binding signal Rmax, were fitted. The association rate (Ka), dissociation rate (Kd), and binding affinity (KD) of the recombinant antibodies with the human GUCY2C and monkey GUCY2C proteins are shown in Table 6.
as §1

[3] = target: T1, Human GUCY2C ECD (his-tagged human …); test: as above; remark: listed apart in the source
Protocol: as §2

[4] = target: T1, Human GUCY2C ECD (his-tagged human …); test: ELISA, plate coated with human GUCY2C-his, OD450
Protocol: A human GUCY2C-his protein was diluted with PBS to a final concentration of 2 μg/mL and then added to a 96-well ELISA plate at 50 μL/well. The plate was sealed with a plastic film and incubated at 4° C. overnight. The next day, the plate was washed 2 times with PBST, and a blocking buffer [PBS+2% (w/w) BSA] was added for blocking at room temperature for 2 h. The blocking buffer was discarded, and the recombinant antibody and positive and negative control antibody with a starting concentration of 100 nM serially diluted by 3 folds were added at 50 μL/well. After incubation at 37° C. for 1 h, the plate was washed 3 times with PBST. A horseradish peroxidase (HRP)—labeled secondary antibody (purchased from Merck, Cat. No. AP113P) was added for incubation at 37° C. for 1 h, and the plate was washed 5 times with PBST. A TMB substrate was added at 50 μL/well for incubation at room temperature for 10 min, and then a stop solution (1.0 M HCl) was added at 50 μL/well. The OD450 nm values were read by an ELISA plate reader (Multimode Plate Reader, EnSight, purchased from Perkin Elmer).

[5] = target: T1, Human GUCY2C ECD (his-tagged human …); test: ELISA, plate coated with human GUCY2C-his, OD450; remark: listed apart in the source
Protocol: To assay the binding activity of the humanized antibodies to human GUCY2C-his protein, a human GUCY2C-his protein was diluted with PBS to a final concentration of 2 μg/mL and then added to a 96-well ELISA plate at 50 μL/well. The plate was sealed with a plastic film and incubated at 4° C. overnight. The next day, the plate was washed 2 times with PBST, and a blocking buffer [PBS+2% (w/w) BSA] was added for blocking at room temperature for 2 h. The blocking buffer was discarded, and the plate was washed 2 times with PBST. An antibody to be tested or a control antibody diluted in a 1:3 gradient from a starting concentration of 100 nM was added at 50 μL/well. After incubation at 37° C. for 1 h, the plate was washed 3 times with PBST. A horseradish peroxidase (HRP)—labeled secondary antibody (purchased from Merck, Cat. No. AP113P) was added for incubation at 37° C. for 1 h, and the plate was washed 5 times with PBST. A TMB substrate was added at 50 µL/well for incubation at room temperature for 5-10 min, and then a stop solution (1.0 M HCl) was added at 50 μL/well. OD450 nm values were read using an ELISA plate reader (Multimode Plate Reader, EnSight, purchased from Perkin Elmer).

T1 sequence (P25092 other isoform, or with tags, fused parts or gaps): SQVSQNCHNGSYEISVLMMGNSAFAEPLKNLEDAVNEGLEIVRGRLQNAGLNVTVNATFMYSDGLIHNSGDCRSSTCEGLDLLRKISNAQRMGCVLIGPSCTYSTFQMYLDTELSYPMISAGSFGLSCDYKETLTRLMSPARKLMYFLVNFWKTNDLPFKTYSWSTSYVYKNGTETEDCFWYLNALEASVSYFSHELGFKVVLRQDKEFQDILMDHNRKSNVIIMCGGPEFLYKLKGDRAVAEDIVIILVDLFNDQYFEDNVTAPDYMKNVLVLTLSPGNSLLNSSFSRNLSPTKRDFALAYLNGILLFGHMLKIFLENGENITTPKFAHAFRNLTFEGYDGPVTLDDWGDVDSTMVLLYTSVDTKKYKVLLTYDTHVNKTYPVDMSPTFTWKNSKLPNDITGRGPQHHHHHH

Kd [1]: 1.63 nM
koff [1]: 0.000258 s⁻¹
kon [1]: 158000 M⁻¹ s⁻¹
Kd [2]: 0.494 nM
koff [2]: 0.000197 s⁻¹
kon [2]: 400000 M⁻¹ s⁻¹
Kd [3]: 0.494 nM
koff [3]: 0.000197 s⁻¹
kon [3]: 400000 M⁻¹ s⁻¹
EC50 (read off the curve) [4]: ~0.09 nM
EC50 (read off the curve) [5]: ~0.05 nM
B1: PF1608-hIgG1 (antibody, V domains shown)
VH: EVQLVESGGGLVQPGGSLRLSCAASGFTFSSYWMHWVRQAPGKGLEWIGEIKPSNELTNVHEKFKDRFTISVDKAKNSAYLQMNSLRAEDTAVYYCTRTITTTEGYWFFDVWGQGTLVTVSS
VL: DIQLTQSPSSLSASVGDRVTITCRASESVDYYGSSLLQWYQQKPGKAPKLLIYAASKLASGVPSRFSGSGSGTDFTLTISSLQPEDFATYYCQQTRKAYTFGQGTKLEIKR
notes: also called PF1608-hlgG1; positive control antibody

Kd [1]: 4.05 nM
koff [1]: 0.000565 s⁻¹
kon [1]: 140000 M⁻¹ s⁻¹
Kd [2]: 1.14 nM
koff [2]: 0.000448 s⁻¹
kon [2]: 391000 M⁻¹ s⁻¹
Kd [3]: 1.14 nM
koff [3]: 0.000448 s⁻¹
kon [3]: 391000 M⁻¹ s⁻¹
EC50 (read off the curve) [4]: ~0.05 nM
EC50 (read off the curve) [5]: ~0.04 nM
B2: 5F9-hIgG1 (antibody, V domains shown)
VH: QVQLQQWGAGLLKPSETLSLTCAVFGGSFSGYYWSWIRQPPGKGLEWIGEINHRGNTNDNPSLKSRVTISVDTSKNQFALKLSSVTAADTAVYYCARERGYTYGNFDHWGQGTLVTVSS
VL: EIVMTQSPATLSVSPGERATLSCRASQSVSRNLAWYQQKPGQAPRLLIYGASTRATGIPARFSGSGSGTEFTLTIGSLQSEDFAVYYCQQYKTWPRTFGQGTNVEIKR
notes: also called positive control antibody
